{
  "source": "paper PMC2631437",
  "about": "(Molecular microbiology, 2008)",
  "key": {"[1]": {"biological_target": "T1, MotA, full length (wild type) (bacteriophage T4, UniProt P22915 1-211)", "T1 sequence (looked up)": "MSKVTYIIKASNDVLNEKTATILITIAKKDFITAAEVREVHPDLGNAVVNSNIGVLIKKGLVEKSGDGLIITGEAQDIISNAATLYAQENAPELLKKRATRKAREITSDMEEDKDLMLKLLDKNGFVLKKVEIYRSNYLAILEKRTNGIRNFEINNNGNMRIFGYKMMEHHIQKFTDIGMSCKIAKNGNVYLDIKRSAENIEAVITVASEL", "test": "NMR titration"}, "AsiA": {"biological_target": "T2, AsiA (bacteriophage T4, UniProt P32267 1-90)", "T2 sequence (looked up)": "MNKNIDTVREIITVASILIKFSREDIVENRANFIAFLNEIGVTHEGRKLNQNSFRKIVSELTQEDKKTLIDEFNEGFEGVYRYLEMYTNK", "test": "NMR titration"}, "[2]": {"biological_target": "T1, MotA, full length (wild type)", "test": "fluorescence polarisation"}, "MotA S80R, full length": {"biological_target": "T3, MotA S80R, full length (bacteriophage T4, UniProt P22915 1-211, S80R)", "T3 sequence (looked up)": "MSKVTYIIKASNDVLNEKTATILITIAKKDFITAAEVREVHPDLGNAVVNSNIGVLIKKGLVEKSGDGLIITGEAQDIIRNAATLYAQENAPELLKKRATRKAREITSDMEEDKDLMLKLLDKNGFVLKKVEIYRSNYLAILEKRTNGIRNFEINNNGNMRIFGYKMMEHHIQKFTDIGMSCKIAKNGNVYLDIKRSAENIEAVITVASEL", "test": "fluorescence polarisation"}, "MotA D43K, full length": {"biological_target": "T4, MotA D43K, full length (bacteriophage T4, UniProt P22915 1-211, D43K)", "T4 sequence (looked up)": "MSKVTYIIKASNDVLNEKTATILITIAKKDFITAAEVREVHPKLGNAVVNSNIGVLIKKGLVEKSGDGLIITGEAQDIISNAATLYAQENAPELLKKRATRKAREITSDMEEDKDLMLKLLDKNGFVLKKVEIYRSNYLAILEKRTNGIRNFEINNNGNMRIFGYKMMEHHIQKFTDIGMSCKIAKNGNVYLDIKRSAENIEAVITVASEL", "test": "fluorescence polarisation"}, "MotA K59E, full length": {"biological_target": "T5, MotA K59E, full length (bacteriophage T4, UniProt P22915 1-211, K59E)", "T5 sequence (looked up)": "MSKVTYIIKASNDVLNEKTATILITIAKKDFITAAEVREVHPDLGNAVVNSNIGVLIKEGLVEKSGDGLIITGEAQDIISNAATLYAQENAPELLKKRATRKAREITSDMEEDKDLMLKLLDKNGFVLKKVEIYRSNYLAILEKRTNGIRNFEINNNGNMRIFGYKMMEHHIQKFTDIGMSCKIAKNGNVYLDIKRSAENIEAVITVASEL", "test": "fluorescence polarisation"}, "MotA D67K, full length": {"biological_target": "T6, MotA D67K, full length (bacteriophage T4, UniProt P22915 1-211, D67K)", "T6 sequence (looked up)": "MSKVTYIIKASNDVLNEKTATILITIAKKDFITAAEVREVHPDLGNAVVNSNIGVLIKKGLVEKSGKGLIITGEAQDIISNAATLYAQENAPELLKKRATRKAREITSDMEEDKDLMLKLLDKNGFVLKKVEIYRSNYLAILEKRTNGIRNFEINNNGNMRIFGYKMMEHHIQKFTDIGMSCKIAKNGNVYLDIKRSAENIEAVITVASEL", "test": "fluorescence polarisation"}, "MotA K3E, full length": {"biological_target": "T7, MotA K3E, full length (bacteriophage T4, UniProt P22915 1-211, K3E)", "T7 sequence (looked up)": "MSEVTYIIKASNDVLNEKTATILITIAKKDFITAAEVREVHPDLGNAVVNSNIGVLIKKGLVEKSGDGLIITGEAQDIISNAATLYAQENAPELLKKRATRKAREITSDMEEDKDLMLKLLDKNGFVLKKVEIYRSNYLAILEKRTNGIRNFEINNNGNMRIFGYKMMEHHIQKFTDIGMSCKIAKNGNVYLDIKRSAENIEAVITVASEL", "test": "fluorescence polarisation"}, "MotA K28E, full length": {"biological_target": "T8, MotA K28E, full length (bacteriophage T4, UniProt P22915 1-211, K28E)", "T8 sequence (looked up)": "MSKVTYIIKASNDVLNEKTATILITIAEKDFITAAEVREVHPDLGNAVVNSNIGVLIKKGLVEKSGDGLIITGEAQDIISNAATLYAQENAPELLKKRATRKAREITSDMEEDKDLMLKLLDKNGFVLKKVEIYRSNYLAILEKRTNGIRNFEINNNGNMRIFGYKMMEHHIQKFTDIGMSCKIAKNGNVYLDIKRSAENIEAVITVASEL", "test": "fluorescence polarisation"}, "MotA Q76R, full length": {"biological_target": "T9, MotA Q76R, full length (bacteriophage T4, UniProt P22915 1-211, Q76R)", "T9 sequence (looked up)": "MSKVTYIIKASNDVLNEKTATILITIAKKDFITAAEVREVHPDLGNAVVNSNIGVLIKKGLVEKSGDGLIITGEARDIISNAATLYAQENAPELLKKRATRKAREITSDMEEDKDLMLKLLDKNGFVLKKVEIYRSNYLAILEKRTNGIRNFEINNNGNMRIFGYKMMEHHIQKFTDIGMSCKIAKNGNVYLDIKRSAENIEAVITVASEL", "test": "fluorescence polarisation"}, "MotA wild type": {"biological_target": "T10, MotA wild type (bacteriophage T4, UniProt P22915 1-211)", "T10 sequence": "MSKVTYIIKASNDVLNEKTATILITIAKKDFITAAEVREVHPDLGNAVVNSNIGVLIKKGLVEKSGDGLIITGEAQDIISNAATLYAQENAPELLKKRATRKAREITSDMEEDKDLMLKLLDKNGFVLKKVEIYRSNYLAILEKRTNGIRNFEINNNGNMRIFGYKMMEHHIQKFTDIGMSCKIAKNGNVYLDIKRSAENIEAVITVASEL", "test": "EMSA"}},
  "note": "Where no end group is shown, it is not given here. The star is where a group is joined. FITC = O=C1OC2(c3ccc(O)cc3Oc3cc(O)ccc32)c2ccc(NC(=S)*)cc21",
  "data": [
    {"binder": "AsiA/σ4 complex (preformed binary complex of AsiA and σ^70 region 4, residues 533 to 613) (complex, bacteriophage T4 | E. coli) chain 1: MNKNIDTVREIITVASILIKFSREDIVENRANFIAFLNEIGVTHEGRKLNQNSFRKIVSELTQEDKKTLIDEFNEGFEGVYRYLEMYTNK chain 2: DSATTESLRAATHDVLAGLTAREAKVLRMRFGIDMNTDYTLEEVGKQFDVTRERIRQIEAKALRKLRHPSRSEVLRSFLDD", "values": [
      {"measurement": "binding result", "setting": "[1]", "result": "binds"}
    ]},
    {"binder": "σ4 (σ^70 region 4, residues 533 to 613) (domain or fragment, E. coli, UniProt P00579 533-613, looked up) DSATTESLRAATHDVLAGLTAREAKVLRMRFGIDMNTDYTLEEVGKQFDVTRERIRQIEAKALRKLRHPSRSEVLRSFLDD", "values": [
      {"measurement": "binding result", "setting": "[1]", "result": "binds"},
      {"measurement": "binding result", "setting": "AsiA", "result": "binds"}
    ]},
    {"binder": "{FITC}-PSRSEVLRSFLDD (peptide, UniProt P00579 601-613, looked up)", "note": "[fluorescein-tagged σ4-H5 peptide (σ^70 residues 601-613)]", "values": [
      {"measurement": "Kd", "setting": "[2]", "result": "15.9 ± 1.3", "unit": "µM"},
      {"measurement": "Kd", "setting": "MotA S80R, full length", "result": "44.7 ± 5", "unit": "µM"},
      {"measurement": "Kd", "setting": "MotA D43K, full length", "result": "12 ± 1", "unit": "µM"},
      {"measurement": "Kd", "setting": "MotA K59E, full length", "result": "10 ± 1", "unit": "µM"},
      {"measurement": "Kd", "setting": "MotA D67K, full length", "result": "24.3 ± 0.1", "unit": "µM"},
      {"measurement": "Kd", "setting": "MotA K3E, full length", "result": "> 300", "unit": "µM"},
      {"measurement": "Kd", "setting": "MotA K28E, full length", "result": "> 300", "unit": "µM"},
      {"measurement": "Kd", "setting": "MotA Q76R, full length", "result": "39.1 ± 5", "unit": "µM"}
    ]},
    {"binder": "21 bp MotA box DNA (dsDNA) DNA 1: GAATTATTTGCTTTAGATTAC DNA 2: GTAATCTAAAGCAAATAATTC", "values": [
      {"measurement": "Kd", "setting": "MotA wild type", "result": "~0.6", "unit": "µM"}
    ]}
  ]
}
